Assay results reported in PMC2440032, “Odorranalectin Is a Small Peptide Lectin with Potential for Drug Delivery and Targeting” (PLoS ONE, 2008).

Key:
[1] = target: T1, fetuin (UniProt P12763 19-359); test: SPR; Biacore 3000; odorranalectin immobilised on sensor chip CM-5 by amine coupling, glycoproteins as analytes diluted in HBS-EP (10 mM HEPES-buffered saline, 3 mM EDTA, 0.005% surfactant P-20, pH 7.4); 1:1 binding model; KD calculated from ka and kd; details: both partners purified
T1 sequence (looked up): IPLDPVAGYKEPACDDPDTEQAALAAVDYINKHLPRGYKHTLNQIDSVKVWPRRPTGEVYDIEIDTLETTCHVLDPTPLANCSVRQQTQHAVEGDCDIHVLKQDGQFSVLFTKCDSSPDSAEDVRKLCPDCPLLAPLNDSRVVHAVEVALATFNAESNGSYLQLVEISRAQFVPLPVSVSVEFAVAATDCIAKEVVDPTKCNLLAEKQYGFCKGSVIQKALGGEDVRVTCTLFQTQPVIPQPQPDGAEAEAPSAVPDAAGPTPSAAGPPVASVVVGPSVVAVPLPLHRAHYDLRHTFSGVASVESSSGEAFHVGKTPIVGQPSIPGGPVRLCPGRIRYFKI

[2] = target: Bovine submaxillary mucin (bovine, heavily O-glycosylated (sialylated) mucin preparation; the polypeptide is not given, and the main bovine submaxillary mucin (MUC19) is assumed with limits from the CHAIN feature; the pre); test: as above; details: both partners purified

B1: odorranalectin (peptide)
peptide: YASPKCFRYPNGVLACT
notes: odorranalectin, mature 17-residue peptide at the C-terminus of the 61-residue precursor, Odorrana grahami; follows the di-basic site K42R43 of the precursor; One intramolecular disulfide bond Cys6-Cys16; Immobilised on a CM-5 chip by amine coupling; Details of purification and synthesis are in Materials and Methods S1; also called lectin-like peptide; source: purified from O. grahami skin …
- Kd [1]: 211 nM
- Kd [2]: 2900 nM
